From patent EP1772519A1
Several values for one entry are separate records, joined by “and”; a condition that tells them apart may be missing. Equal entries are not always repeated.

Target: recombinant RB47 (r-RB47), containing only the four RNA recognition motif domains, histidine tag fus (Chlamydomonas reinhardtii)
Experiment: cell-based or functional assay

“recombinant RB60 (r-RB60), histidine tag fusion expressed in E. coli (enzyme)” was tested, and the RNA binding activity of r-RB47 (gel mobility-shift assay) after incubation with GSSG and r-RB60 was 5 fold and 6 fold.
